According to patent US20260250420A1 (SICHUAN KELUN BIOTECH BIOPHARMACEUTICAL, published 2026):

How the values were obtained:
[1] = biological target: T1, human PTK7 on cells (tumor cells endogenously expressing PTK7); CHO-hPTK7, CHO-S-hPTK7 and 293T-hPTK7 … (human, UniProt Q13308 31-1070); experiment: flow cytometry on H1299 cells
T1 construct: whole, on cells; The cell line of each value is named under assay; also called H1299; H358
T1 sequence (looked up): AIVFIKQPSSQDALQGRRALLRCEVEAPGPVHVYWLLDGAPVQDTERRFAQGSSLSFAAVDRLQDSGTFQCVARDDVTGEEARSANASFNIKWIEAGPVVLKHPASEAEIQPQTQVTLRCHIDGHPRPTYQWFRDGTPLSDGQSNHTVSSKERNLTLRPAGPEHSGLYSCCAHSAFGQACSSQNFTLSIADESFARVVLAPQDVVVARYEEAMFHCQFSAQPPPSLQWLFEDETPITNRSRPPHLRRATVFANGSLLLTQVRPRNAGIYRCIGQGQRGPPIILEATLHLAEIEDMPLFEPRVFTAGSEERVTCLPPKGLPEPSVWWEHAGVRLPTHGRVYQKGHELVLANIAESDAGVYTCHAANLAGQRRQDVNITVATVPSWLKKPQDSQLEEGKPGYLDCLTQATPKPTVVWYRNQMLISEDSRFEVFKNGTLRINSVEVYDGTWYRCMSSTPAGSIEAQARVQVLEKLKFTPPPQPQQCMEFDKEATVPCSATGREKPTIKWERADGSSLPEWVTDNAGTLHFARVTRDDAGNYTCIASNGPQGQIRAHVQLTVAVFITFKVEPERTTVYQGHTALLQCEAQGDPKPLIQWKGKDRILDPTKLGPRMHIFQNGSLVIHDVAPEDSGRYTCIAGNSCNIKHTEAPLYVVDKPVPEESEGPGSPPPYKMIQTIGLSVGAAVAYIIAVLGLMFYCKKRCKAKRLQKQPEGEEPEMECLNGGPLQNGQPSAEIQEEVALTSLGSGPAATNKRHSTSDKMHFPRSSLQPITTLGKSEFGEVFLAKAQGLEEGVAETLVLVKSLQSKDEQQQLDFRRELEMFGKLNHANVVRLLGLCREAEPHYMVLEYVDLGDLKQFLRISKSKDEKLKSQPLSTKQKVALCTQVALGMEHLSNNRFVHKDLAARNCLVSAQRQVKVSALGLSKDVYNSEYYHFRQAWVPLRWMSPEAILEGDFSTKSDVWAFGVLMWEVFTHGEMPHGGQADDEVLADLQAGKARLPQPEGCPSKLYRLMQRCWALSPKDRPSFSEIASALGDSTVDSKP
Excerpt: (§1) A flow cytometer (Beckman, Cytoflex) was used for detecting the affinity of the anti-human PTK7 chimeric and humanized antibodies with human non-small cell lung cancer cells H1299, human lung adenocarcinoma cells H1975, human breast cancer cells T47D, human ovarian cancer cells OVCAR-3 (all purchased from NANJING COBIOER BIOSCIENCES CO., LTD) and CHO-hPTK7 overexpression cells.
(§2) The adherent cells were digested by using a pancreatin (Gibco) solution; a proper amount of cells were counted and taken, washed twice by using 1×PBS, and re-suspended in a 1% BSA solution; and then the cells were transferred into a 96-well deep plate at a density of 50 μl/well; a candidate antibody was diluted by using 1% BSA, then 50 μl of diluted antibody was added into the deep plate containing the cells, and incubated for 40 min at 4° C.; the cells were washed twice by using PBS, then 50 μl of diluted secondary antibody was added into each well, uniformly mixed, and incubated for 30 min at 4° C.; and the cells were washed twice by using PBS, then re-suspended in 400 μl of PBS, and subjected to examination by flow cytometer.

[2] = biological target: T2, monkey PTK7 protein (extracellular sequence of monkey PTK7 with C-terminal 6×His tag) (monkey); experiment: BLI (ForteBio), antibody on Protein A sensor, monkey PTK7 protein in solution
T2 chain: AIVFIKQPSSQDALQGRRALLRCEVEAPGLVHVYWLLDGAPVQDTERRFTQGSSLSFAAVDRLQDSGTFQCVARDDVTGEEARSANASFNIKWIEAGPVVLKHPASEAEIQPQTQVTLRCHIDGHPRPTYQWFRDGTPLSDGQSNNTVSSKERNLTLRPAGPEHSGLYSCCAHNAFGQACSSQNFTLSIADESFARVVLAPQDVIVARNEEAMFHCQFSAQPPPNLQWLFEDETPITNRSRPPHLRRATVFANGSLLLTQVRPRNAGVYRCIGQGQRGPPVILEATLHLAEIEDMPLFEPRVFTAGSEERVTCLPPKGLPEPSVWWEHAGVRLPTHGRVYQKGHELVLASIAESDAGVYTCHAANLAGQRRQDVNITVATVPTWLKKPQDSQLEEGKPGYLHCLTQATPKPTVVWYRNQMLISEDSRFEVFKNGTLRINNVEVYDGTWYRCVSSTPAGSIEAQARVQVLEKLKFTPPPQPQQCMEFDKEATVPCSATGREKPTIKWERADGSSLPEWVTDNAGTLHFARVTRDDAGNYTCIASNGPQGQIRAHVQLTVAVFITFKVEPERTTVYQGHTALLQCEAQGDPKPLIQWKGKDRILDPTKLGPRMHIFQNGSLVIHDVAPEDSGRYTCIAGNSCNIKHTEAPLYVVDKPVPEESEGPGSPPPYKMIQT
Excerpt: The dynamic affinity of the control Hu24 and candidate antibodies 64A10HZ, 101A6HZ, 4E12HZ and 19C2HZ with human PTK7-His was detected by using ForteBio (Pall life sciences).
ELISA and ForteBio were adopted to detect binding of the anti-human PTK7 chimeric and humanized antibodies to the monkey, mouse and rat PTK7 proteins.

[3] = biological target: T1, human PTK7 on cells (tumor cells …); experiment: flow cytometry on H1975 cells
Excerpt: as §1, §2

[4] = biological target: T1, human PTK7 on cells (tumor cells …); experiment: cell-based or functional assay

B1: 101A6HZ (anti-human PTK7 humanized antibody) (antibody, human IgG1, kappa)
heavy: not shown
light: DIVMTQSPDSLAVSLGERATINCKASQDVGSAVIWYQQKPGQSPKLLIYWASTRHTGVPDRFSGSGSGTDFTLTISSLQAEDVAVYYCQQYSSYPLTFGQGTKLEIKRTVAAPSVFIFPPSDEQLKSGTASVVCLLNNFYPREAKVQWKVDNALQSGNSQESVTEQDSKDSTYSLSSTLTLSKADYEKHKVYACEVTHQGLSSPVTKSFNRGEC
- EC50 [1]: 0.0843 µg/mL
- Kd [2]: 134 nM
- EC50 [3]: 0.178 µg/mL
- FADU cell endocytosis activity, EC50 [4]: 0.115 µg/mL

B2: Hu24 (PTK7 control antibody, taken from Hu24 in the Patent CN201580030255) (antibody)
chain 1: QVQLVQSGPEVKKPGASVKVSCKASGYTFTDYAVHWVRQAPGKRLEWIGVISTYNDYTYNNQDFKGRVTMTRDTSASTAYMELSRLRSEDTAVYYCARGNSYFYALDYWGQGTSVTVSS
chain 2: EIVLTQSPATLSLSPGERATLSCRASESVDSYGKSFMHWYQQKPGQAPRLLIYRASNLESGIPARFSGSGSGTDFTLTISSLEPEDFAVYYCQQSNEDPWTFGGGTKLEIK
- EC50 [1]: 0.0649 µg/mL
- Kd [2]: 11.9 nM
- EC50 [3]: 0.134 µg/mL
- FADU cell endocytosis activity, EC50 [4]: 0.18 µg/mL

B3: 64A10HZ (anti-human PTK7 humanized antibody) (antibody, human IgG1, kappa, V domains shown)
VH: QVQLQESGPGLVKPSETLSLTCTVSGFSLTSYGVYWVRQPPGKGPEWLGVIWTSGNTNYNPSLKSRLTISKDNSKNQVSLKLSSVTAADTAVYYCVKHDGGNYVGVMNYWGQGTLVTVSS
VL: EIVMTQSPDFQSVTPKEKVTITCRASQSISDYLHWYQQKPDQSPKLLIKYASQSISGVPSRFSGSGSGSDFTLTINSLEAEDAATYYCQNGHSFPPTFGQGTKLEIKR
notes: Human IgG1 heavy chain constant region and human Kappa light chain constant region; expressed in CHO-S cells
- EC50 [1]: 0.0475 µg/mL
- Kd [2]: 26.7 nM
- EC50 [3]: 0.0767 µg/mL
- FADU cell endocytosis activity, EC50 [4]: 0.147 µg/mL
